Results published in IntAct's records for PubMed 35512704.

B1: Mothers against decapentaplegic homolog 4 (Homo sapiens), Q13485 (parent)
chain: MDNMSITNTPTSNDACLSIVHSLMCHRQGGESETFAKRAIESLVKKLKEKKDELDSLITAITTNGAHPSKCVTIQRTLDGRLQVAGRKGFPHVIYARLWRWPDLHKNELKHVKYCQYAFDLKCDSVCVNPYHYERVVSPGIDLSGLTLQSNAPSSMMVKDEYVHDFEGQPSLSTEGHSIQTIQHPPSNRASTETYSTPALLAPSESNATSTANFPNIPVASTSQPASILGGSHSEGLLQIASGPQPGQQQNGFTGQPATYHHNSTTTWTGSRTAPYTPNLPHHQNGHLQHHPPMPPHPGHYWPVHNELAFQPPISNHPAPEYWCSIAYFEMDVQVGETFKVPSSCPIVTVDGYVDPSGGDRFCLGQLSNVHRTEAIERARLHIGKGVQLECKGEGDVWVRCLSDHAVFVQSYYLDREAGRAPGDAVHKIYPSAYIKVFDLRQCHRQMQQQAATAQAAAAAQAAAVAGNIPGPGSVGGIAPAISLSAAAGIGVDDLRRLCILRMSFVKGWGPDYPRQSIKETPCWIEIHLHRALQLLDEVLHTMPIADPQPLD
partner: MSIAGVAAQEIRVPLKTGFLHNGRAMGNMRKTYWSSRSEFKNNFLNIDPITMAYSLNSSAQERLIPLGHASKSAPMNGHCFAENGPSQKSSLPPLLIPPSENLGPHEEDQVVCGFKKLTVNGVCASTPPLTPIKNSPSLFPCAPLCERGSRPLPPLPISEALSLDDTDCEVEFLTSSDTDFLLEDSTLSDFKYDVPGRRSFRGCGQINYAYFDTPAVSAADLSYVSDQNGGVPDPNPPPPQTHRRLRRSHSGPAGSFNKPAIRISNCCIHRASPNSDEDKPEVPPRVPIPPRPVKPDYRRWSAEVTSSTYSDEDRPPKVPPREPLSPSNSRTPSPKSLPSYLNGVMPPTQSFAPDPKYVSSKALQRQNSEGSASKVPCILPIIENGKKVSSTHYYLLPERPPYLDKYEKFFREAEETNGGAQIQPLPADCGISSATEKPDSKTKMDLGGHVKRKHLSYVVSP
B2: Mothers against decapentaplegic homolog 4 (Homo sapiens), Q13485 (parent)
chain: B1 chain
partner: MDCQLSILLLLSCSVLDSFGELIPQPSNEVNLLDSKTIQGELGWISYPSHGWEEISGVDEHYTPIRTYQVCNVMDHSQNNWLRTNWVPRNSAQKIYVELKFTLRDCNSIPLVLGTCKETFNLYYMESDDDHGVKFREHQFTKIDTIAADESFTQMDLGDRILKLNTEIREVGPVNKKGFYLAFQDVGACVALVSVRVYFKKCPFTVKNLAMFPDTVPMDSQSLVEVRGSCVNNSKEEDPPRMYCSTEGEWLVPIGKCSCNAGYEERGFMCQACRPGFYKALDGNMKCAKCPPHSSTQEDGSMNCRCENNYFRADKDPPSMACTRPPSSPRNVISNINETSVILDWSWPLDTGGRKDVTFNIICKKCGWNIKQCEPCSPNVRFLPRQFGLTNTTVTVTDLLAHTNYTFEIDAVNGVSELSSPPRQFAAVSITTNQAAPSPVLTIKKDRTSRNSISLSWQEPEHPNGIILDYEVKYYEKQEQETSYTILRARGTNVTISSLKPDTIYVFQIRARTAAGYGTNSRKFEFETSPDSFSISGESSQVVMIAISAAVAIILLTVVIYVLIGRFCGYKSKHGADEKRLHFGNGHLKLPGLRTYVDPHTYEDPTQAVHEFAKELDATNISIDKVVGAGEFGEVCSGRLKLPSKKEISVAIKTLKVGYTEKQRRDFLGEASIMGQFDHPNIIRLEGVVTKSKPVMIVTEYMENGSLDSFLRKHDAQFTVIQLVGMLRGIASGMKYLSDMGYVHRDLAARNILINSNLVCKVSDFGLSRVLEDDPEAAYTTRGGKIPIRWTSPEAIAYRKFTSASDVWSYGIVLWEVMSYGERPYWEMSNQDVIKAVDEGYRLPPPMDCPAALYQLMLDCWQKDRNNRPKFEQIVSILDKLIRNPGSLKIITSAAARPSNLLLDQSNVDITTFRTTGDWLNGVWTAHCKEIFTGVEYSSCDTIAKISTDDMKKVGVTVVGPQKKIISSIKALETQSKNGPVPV
B3: Mothers against decapentaplegic homolog 4 (Homo sapiens), Q13485 (parent)
chain: B1 chain
partner: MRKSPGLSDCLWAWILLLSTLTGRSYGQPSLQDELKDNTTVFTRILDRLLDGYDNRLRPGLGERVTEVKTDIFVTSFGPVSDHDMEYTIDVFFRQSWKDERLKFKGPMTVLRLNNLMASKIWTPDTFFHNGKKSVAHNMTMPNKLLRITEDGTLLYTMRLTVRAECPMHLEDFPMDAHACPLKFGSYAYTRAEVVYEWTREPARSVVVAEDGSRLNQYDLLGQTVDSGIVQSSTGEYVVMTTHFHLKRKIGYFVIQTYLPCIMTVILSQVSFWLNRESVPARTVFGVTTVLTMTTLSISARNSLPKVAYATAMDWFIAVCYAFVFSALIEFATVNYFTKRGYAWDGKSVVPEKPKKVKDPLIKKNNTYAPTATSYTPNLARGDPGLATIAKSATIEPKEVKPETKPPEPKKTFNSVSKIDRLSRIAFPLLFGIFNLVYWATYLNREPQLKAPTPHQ

Variants of: B1
Settings: with errfi_human ERRFI1, Q9UJM3

For D351H, which “effect of a mutation on the interaction” value is on record?
The value was “with no effect”.

Variants of: B1
Settings: with errfi_human ERRFI1, Q9UJM3
Remark: another data set of the same source

Which “effect of a mutation on the interaction” value does the source give for G386D here?
The value was “with no effect”.

Variants of: B1
Settings: with errfi_human ERRFI1, Q9UJM3
Remark: another data set of the same source

With R361C as the variant, how does the “effect of a mutation on the interaction” value read?
The value was “with no effect”.

Variants of: B1
Settings: with errfi_human ERRFI1, Q9UJM3
Remark: another data set of the same source

Which “effect of a mutation on the interaction” value does the source give for R361H here?
The value was “with no effect”.

Variants of: B2
Settings: with epha3_human EPHA3, P29320

With G386D as the variant, how does the “effect of a mutation on the interaction” value read?
The value was “with no effect”.

Variants of: B2
Settings: with epha3_human EPHA3, P29320
Remark: another data set of the same source

How did the “effect of a mutation on the interaction” value turn out when G386D was run?
Its value is “increasing interaction strength”.

Variants of: B2
Settings: with epha3_human EPHA3, P29320
Remark: another data set of the same source

D351H was tested. Which “effect of a mutation on the interaction” value did it give?
The value was “with no effect”.

Variants of: B2
Settings: with epha3_human EPHA3, P29320
Remark: another data set of the same source

For R361H, which “effect of a mutation on the interaction” value is on record?
The value was “with no effect”.

Variants of: B2
Settings: with epha3_human EPHA3, P29320
Remark: another data set of the same source

Which “effect of a mutation on the interaction” value does the source give for R361C here?
The value was “with no effect”.

Variants of: B3
Settings: with gbra1_human GABRA1, P14867

G386D was tested. Which “effect of a mutation on the interaction” value did it give?
Its value is “with no effect”.

Variants of: B3
Settings: with gbra1_human GABRA1, P14867
Remark: another data set of the same source

With R361H as the variant, how does the “effect of a mutation on the interaction” value read?
The value was “with no effect”.

Variants of: B3
Settings: with gbra1_human GABRA1, P14867
Remark: another data set of the same source

R361C was tested. Which “effect of a mutation on the interaction” value did it give?
Its value is “with no effect”.

Variants of: B3
Settings: with gbra1_human GABRA1, P14867
Remark: another data set of the same source

How did the “effect of a mutation on the interaction” value turn out when D351H was run?
The value was “with no effect”.
